# From patent US20120156175A1
# Biological target: integrin alpha V beta 5 (human) (UniProt P06756)
# Experiment: cell-based or functional assay
# Sequence of UniProt P06756 (P06756 31-1048, chain 1 of 2): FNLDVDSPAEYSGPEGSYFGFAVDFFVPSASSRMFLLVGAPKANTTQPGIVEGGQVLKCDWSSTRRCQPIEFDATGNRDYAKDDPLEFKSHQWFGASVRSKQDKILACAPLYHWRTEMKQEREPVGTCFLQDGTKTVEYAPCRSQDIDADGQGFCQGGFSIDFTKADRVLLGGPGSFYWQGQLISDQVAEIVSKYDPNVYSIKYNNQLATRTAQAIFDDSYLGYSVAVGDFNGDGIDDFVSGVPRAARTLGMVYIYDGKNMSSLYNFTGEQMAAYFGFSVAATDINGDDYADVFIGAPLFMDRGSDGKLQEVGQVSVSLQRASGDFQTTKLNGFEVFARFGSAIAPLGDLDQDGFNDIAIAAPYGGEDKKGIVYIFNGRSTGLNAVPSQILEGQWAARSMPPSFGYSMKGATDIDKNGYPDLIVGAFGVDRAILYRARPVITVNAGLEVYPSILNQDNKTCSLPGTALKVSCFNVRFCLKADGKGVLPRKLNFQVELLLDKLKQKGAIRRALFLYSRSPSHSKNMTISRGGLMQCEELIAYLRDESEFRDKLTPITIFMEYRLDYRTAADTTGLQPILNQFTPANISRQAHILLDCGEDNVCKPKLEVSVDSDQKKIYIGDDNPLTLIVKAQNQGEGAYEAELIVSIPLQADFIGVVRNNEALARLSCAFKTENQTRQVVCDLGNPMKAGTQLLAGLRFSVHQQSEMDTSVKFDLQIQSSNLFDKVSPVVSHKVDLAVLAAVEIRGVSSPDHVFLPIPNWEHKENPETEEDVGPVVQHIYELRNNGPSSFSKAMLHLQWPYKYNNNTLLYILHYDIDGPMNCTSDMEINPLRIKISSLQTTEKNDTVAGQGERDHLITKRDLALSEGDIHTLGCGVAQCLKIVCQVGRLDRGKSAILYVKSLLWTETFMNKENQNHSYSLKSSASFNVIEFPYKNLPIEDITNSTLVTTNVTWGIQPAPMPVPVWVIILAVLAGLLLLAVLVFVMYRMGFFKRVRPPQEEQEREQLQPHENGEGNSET
# Sequence of UniProt P06756 (P18084 24-799, chain 2 of 2, further chain): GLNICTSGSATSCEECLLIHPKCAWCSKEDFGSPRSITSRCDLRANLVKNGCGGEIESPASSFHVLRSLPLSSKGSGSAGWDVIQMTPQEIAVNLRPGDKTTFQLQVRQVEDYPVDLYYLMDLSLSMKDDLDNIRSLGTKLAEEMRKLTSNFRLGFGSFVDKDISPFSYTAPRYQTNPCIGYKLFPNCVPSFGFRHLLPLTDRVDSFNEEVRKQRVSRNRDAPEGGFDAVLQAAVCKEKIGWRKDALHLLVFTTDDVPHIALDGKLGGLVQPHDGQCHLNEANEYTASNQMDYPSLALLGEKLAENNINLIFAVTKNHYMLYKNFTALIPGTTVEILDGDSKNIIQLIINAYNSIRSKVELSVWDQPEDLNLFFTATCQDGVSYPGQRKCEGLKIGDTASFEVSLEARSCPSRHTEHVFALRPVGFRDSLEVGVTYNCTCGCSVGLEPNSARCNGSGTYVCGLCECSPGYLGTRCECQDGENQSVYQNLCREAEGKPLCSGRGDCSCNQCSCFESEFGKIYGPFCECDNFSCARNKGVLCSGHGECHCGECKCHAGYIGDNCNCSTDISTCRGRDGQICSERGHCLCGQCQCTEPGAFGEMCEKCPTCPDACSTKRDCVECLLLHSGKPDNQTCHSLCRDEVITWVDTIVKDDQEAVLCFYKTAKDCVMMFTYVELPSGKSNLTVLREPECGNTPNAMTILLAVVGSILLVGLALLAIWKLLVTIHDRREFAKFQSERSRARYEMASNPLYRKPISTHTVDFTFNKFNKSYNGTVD
substance,measurement,value
periostin (from UniProt Q15063 22-779) (ligand),"ability to induce the migration of neural stem cells (Boyden chamber assay, HB1.F3 cells, against cells not treated with periostin)",100%
